# B1: Ade1 (EBV-BORF2) (natural protein)
# chain: MATTSHVEHELLSKLIDELKVKANSDPEADVLAGRLLHRLKAESVTHTVAEYLEVFSDKFYDEEFFQMHRDELETRVSAFAQSPAYERIVSSGYLSALRYYDTYLYVGRSGKQESVQHFYMRLAGFCASTTCLYAGLRAALQRARPEIESDMEVFDYYFEHLTSQTVCCSTPFMRFAGVENSTLASCILTTPDLSSEWDVTQALYRHLGRYLFQRAGVGVGVTGAGQDGKHISLLMRMINSHVEYHNYGCKRPVSVAAYMEPWHSQIFKFLETKLPENHERCPGIFTGLFVPELFFKLFRDTPWSDWYLFDPKDAGDLERLYGEEFEREYYRLVTAGKFCGRVSIKSLMFSIVNCAVKAGSPFILLKEACNAHFWRDLQGEAMNAANLCAEVLQPSRKSVATCNLANICLPRCLVNAPLAVRAQRADTQGDELLLALPRLSVTLPGEGAVGDGFSLARLRDATQCATFVVACSILQGSPTYDSRDMASMGLGVQGLADVFADLGWQYTDPPSRSLNKEIFEHMYFTALCTSSLIGLHTRKIFPGFKQSKYAGGWFHWHDWAGTDLSIPREIWSRLSERIVRDGLFNSQFIALMPTSGCAQVTGCSDAFYPFYANASTKVTNKEEALRPNRSFWRHVRLDDREALNLVGGRVSCLPEALRQRYLRFQTAFDYNQEDLIQMSRDRAPFVDQSQSHSLFLREEDAARASTLANLLVRSYELGLKTIMYYCRIEKAADLGVMECKASAALSVPREEQNERSPAEQMPPRPMEPAQVAGPVDIMSKGPGEGPGGWCVPGGLEVCYKYRQLFSEDDLLETDGFTERACESCQ
# Experiments:
# [1] = target: A3A-CBE (A3A-nCas9-2xUGI)
# [2] = target: A3Bctd-CBE (A3Bctd-nCas9-2xUGI)
# [3] = target: A3Gctd-CBE (A3Gctd-nCas9-2xUGI)
binder,measurement,setting,value
B1,"fold inhibition of base editing by Ade1 at the FANCF site, HEK293T cells (Fig. 2e)",A3Bctd-L7G CBE chimera,1.06 fold
same,"fold inhibition of base editing by Ade1 at the FANCF site, HEK293T cells (Fig. 2e)",[1],1.06 fold
same,"fold inhibition of base editing by Ade1 at the FANCF site, HEK293T cells (Fig. 2e)",A3Bctd-L1A CBE chimera,1.47 fold
same,"fold inhibition of base editing by Ade1 at the FANCF site, HEK293T cells (Fig. 2e)",A3Gctd-L1L7B CBE chimera,5.66 fold
same,"fold inhibition of base editing by Ade1 at the FANCF site, HEK293T cells (Fig. 2e)",[2],5.2 fold
same,"fold inhibition of base editing by Ade1 at the FANCF site, HEK293T cells (Fig. 2e)",A3Gctd-L1B CBE chimera,5.67 fold
same,"fold inhibition of base editing by Ade1 at the FANCF site, HEK293T cells (Fig. 2e)",A3Gctd-L7B CBE chimera,1.32 fold
same,"fold inhibition of base editing by Ade1 at the FANCF site, HEK293T cells (Fig. 2e)",[3],0.96 fold
same,"fold inhibition of base editing by Ade1 at the FANCF site, HEK293T cells (Fig. 2e)",A3A-L1B CBE chimera,3.26 fold
